Consider eleven molecules from US20250313631A1 (HUMMINGBIRD BIOSCIENCE PTE, published 2025).

A word on the Kd: it is the constant that tells how readily two partners part at equilibrium. Usually koff stands for the rate constant with which the complex falls apart. The term kon denotes a measure of how fast the partners come together. The EC50 is the concentration at which the effect is half-maximal.

Test [1] concerns the target T1, human VISTA expressed on cells (human, UniProt Q9H7M9 33-311).
T1 construct: also called HEK293 VISTA O/E; HEK293T or HEK293-6E cells overexpressing human VISTA
Briefly: flow cytometry, FITC anti-Fc detection; HEK293 VISTA O/E against HEK293. (In general: Flow cytometry measures light scatter and fluorescence of single cells or particles in a stream.)
Experimental: (§1) The cells were washed thrice with FACS buffer (PBS with 5 mM EDTA and 0.5% BSA) and resuspended in FITC-conjugated anti-FC antibody (Invitrogen, USA) for 40 min at 2-8° C. Cells were washed again and resuspended in 200 μL of FACS flow buffer (PBS with 5 mM EDTA) for flow cytometric analysis using MACSQuant 10 (Miltenyi Biotec, Germany). After acquisition, all raw data were analyzed using Flowlogic software. Cells were gated using forward and side scatter profile and Median of Fluorescence Intensity (MFI) value was determined for native and overexpressing cell populations.

The target in test [2] is T2, recombinant human VISTA (His-tagged) (human, UniProt Q9H7M9 33-194).
T2 construct: bought soluble protein (Sino Biological); also called hVISTA; human VISTA polypeptide
In words: competition ELISA: VSIG-3 coated, His-tagged VISTA added with the antibody, anti-His-HRP; blocked ligand VSIG-3. A general note: An ELISA detects its analyte on a solid surface through an enzyme-linked reagent.
Experimental: Briefly, 96-well plates (Nunc, Denmark) were coated with 1 μg/ml of untagged or Fc-tagged VSIG-3 (R&D Systems, USA) in 1×PBS for 16 h at 4° C. […] Plates were subsequently washed three times with TBS-T and incubated with an HRP-conjugated anti-his secondary antibody for 1 h at room temperature. After washing, plates were developed with colorimetric detection substrate Turbo-TMB (Pierce, USA).

Test [3] addresses T2, recombinant human VISTA (His-tagged). Briefly: BLI (Octet), 1:1 global fit, human VISTA captured. Background: In BLI a coated tip is dipped into the sample, and binding shifts an interference pattern.
Experimental: (§2) Finally, the biosensors were incubated for 120 sec in PBS pH 7.2 to obtain the dissociation curves. Kinetic and affinity constants were calculated by global fitting of the association and dissociation data to a 1:1 binding model.
For test [4], the target named is T3, recombinant mouse VISTA (His-tagged) (mouse, UniProt Q9D659 33-191).
T3 construct: also called murine VISTA; mVISTA
T3 sequence (looked up): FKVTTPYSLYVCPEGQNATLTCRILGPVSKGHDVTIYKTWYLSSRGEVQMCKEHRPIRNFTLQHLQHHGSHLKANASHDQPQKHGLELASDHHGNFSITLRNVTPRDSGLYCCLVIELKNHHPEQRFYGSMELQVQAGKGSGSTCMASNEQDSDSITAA
Briefly: BLI (Octet), 1:1 global fit, mouse VISTA captured.
Experimental: All measurements were performed at 25° C. with agitation at 1000 rpm. […] Sensograms were referenced for buffer effects and then fitted using the Octet QK384 user software (Pall ForteBio, USA).

In test [5] the target is T2, recombinant human VISTA (His-tagged). Briefly: BLI (Octet), 1:1 global fit, His-tagged human VISTA captured.
For test [6], the target named is T3, recombinant mouse VISTA (His-tagged). In words: BLI (Octet), 1:1 global fit, His-tagged mouse VISTA captured.
For test [7] the target is unchanged. The test is described as above. This is another data set of the same source.
The target of test [8] is T2, recombinant human VISTA (His-tagged). In words: ELISA, plate coated with human VISTA; unit nM from the legend paragraph 697.
For test [9], the target named is T3, recombinant mouse VISTA (His-tagged). In words: ELISA, plate coated with mouse VISTA; unit nM from the legend paragraph 697.
Test [10] addresses T2, recombinant human VISTA (His-tagged). Briefly: ELISA, plate coated with human VISTA; unit nM from the legend paragraph 698.
The target in test [11] is T3, recombinant mouse VISTA (His-tagged). In words: ELISA, plate coated with mouse VISTA; unit nM from the legend paragraph 698.
The target of test [12] is T2, recombinant human VISTA (His-tagged). Briefly: ELISA, plate coated with human VISTA; unit nM from the legend paragraph 699.
The target in test [13] is T3, recombinant mouse VISTA (His-tagged). In words: ELISA, plate coated with mouse VISTA; unit nM from the legend paragraph 699.
The target of test [14] is T4, human PD-L1 (human, UniProt Q9NZQ7 19-239).
T4 construct: captured through a His tag in the BLI experiments; also called hPD-L1; B7H1/PDL-1
Briefly: BLI (Octet), His-tagged human PD-L1 on anti-Penta-HIS biosensor, antibody 500-15.6 nM.
Experimental: as §2

The target of test [15] is T1, human VISTA expressed on cells. Briefly: flow cytometry, FITC anti-Fc detection; HEK293 cells overexpressing human VISTA against HEK293 cells without VISTA.
Experimental: as §1
Test [16] has as its target T2, recombinant human VISTA (His-tagged). Briefly: ELISA, target protein coated, absorbance 450 nm.
The target of test [17] is T3, recombinant mouse VISTA (His-tagged). In words: ELISA, target protein coated, absorbance 450 nm.
In test [18] the target is T4, human PD-L1. Briefly: ELISA, target protein coated, absorbance 450 nm.

A value given as a limit tells only on which side of the number the result lay.

T4 sequence (Q9NZQ7 19-239 limits assumed): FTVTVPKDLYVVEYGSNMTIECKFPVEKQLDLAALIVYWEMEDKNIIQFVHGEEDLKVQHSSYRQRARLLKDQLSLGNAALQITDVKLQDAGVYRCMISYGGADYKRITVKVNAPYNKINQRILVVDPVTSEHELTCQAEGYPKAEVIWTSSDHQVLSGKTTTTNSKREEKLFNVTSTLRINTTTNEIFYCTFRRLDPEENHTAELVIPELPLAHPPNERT

B1: anti-VISTA clone 5M1-A11 IgG1 (antibody, V domains shown)
VH: QVTLKVSGPGILQPSQTLSLTCSFSGFSLSTSGMGVSWIRQPSGKGLEWLAHIYWDDDKRYNPSLKSRLTISKDSSSNQVFLKITSVDTADTATYYCARRLDGYNDPYYFDYWGQGTTLTVSS
VL: DVVMTQTPALMSASPGEKVTMTCSASSSVSYMYWYQQKPRSSPKPWIYLTSNLASGVPARFSGSGSGTSYSLTISSMEAEDAATYYCQQWNSNPYTFGGGTKLEIKR
As to B1, the binding result in test [1] and in [2] was “binds” each time.

B2: anti-VISTA clone 4M2-C9 IgG1 (antibody, V domains shown)
VH: QVTLKECGPGILQPSQTLSLTCSFSGFSLSTSGMGVSWIRQPSGKGLEWLAHIYWDDDKRYNPSLKSRLTISKDSSSNQVFLKITSVDTADTATYYCARRLDGYNDPYYFDYWGQGTTLTVSS
VL: DIVMTQSPSSLSASLGDTVTITCHASQNVNVWLSWYQQKPGNIPKLLIYKASNLHAGVPSRFSGSGSGTGFTLTISSLQPEDIATYYCQQGQSYPLTFGGGTKLEIKR
Turning to B2, the binding result in [1] is listed as “binds”.

B3: anti-VISTA clone 1M2-D2 IgG1 (antibody, V domains shown)
VH: EVKVEESGGGLVQPGGSMKLSCAASGFTFSDAWMDWVHQSPEKGLEWVAEIRSKANNHATYYVESVEGRFTISRDDSKSSVFLQVNSLRPEDTGIYYCTRRDGYYFAYWGQGTLVTVSA
VL: DIVLTQSPAIMSASLGEEITLTCSASSSVRDMHWYQQKSGTSPKVLIYNTFNLASGVPSRFSGSGSGTFYSLTISSVEAGDAAAYYCHQWSSYPTFGGGTKLEIKR
With B3, in test [1], the binding result was “binds”.

B4: anti-VISTA clone 4M2-D9 IgG1 (antibody, V domains shown)
VH: EVQLQESGPGLVKPSQSLSLTCTVTGYSITSDYAWNWIRQFPGNRLEWMGFISYSGFTTYSPSLESRISITRDTSKNQFFLQLISVTTEDTATYYCARNHYGGSYWYFDVWGAGTSVTVSS
VL: DIVMTQSPGSLAVSLGQRATISCRASESVEYYGTSLMQWYLQKPGQPPKLLIYAASNVESGVPDRFRGSGSGTDFSLNIHPVEEDDIAMYFCQQSRKVPWTFGGGTKLEIKR
Turning to B4, the binding result in test [1] is on record as “binds”.

B5: anti-VISTA clone V4-C1 IgG1 (antibody, V domains shown)
VH: QVQLQESGPGLVKPSDTLSLTCTVSGYSITSDYAWNWIRQTPGKGLEWIGYITYSGYISYNPSLRSRVTISRDTSKNQFSLKLSSVTAADTAVYSCARALYYPWYFDVWGTGTTVTVSS
VL: EIVITQSPATLSLSPGERATLSCRASSSVGYIHWYQQKPGQAPRPLIYATSNRATGIPARFSGSGSGTDNTLTISSLEPEDSAVYYCQQWSSYPPITFGGGTKLEVKR
Take B5: the Kd in [3] was less than 0.001 nM; in test [4] it was 58.5 nM; in test [5], less than 0.001 nM; in [6] it was 60.7 nM; in [7], 66.7 nM. Also, the koff in test [3] was less than 1e-07 s⁻¹; in [4] it was 0.0162 s⁻¹; in test [5] it was less than 1e-07 s⁻¹; in [6], 0.0147 s⁻¹; in test [7], 0.022 s⁻¹. Further, the kon in test [3] came to 391000 M⁻¹ s⁻¹; in test [4], 277000 M⁻¹ s⁻¹; in test [5] it was 343000 M⁻¹ s⁻¹; in test [6], 243000 M⁻¹ s⁻¹; in test [7], 330000 M⁻¹ s⁻¹. The EC50 in [8] was 0.0024 nM; in test [9], 3.1 nM; in [10], 0.042 nM; in [11], 1.6 nM; in test [12], 0.065 nM; in test [13], 2.44 nM. Besides, the binding result in test [14] is “no binding (tested: 500 nM)”.

B6: anti-VISTA clone V4-C9 IgG1 (antibody, V domains shown)
VH: QVQLQESGPGLVKPSDTLSLTCTVSGYSITSDYAWNWIRQTPGKGLEWIGYITYSGYVSYNPSLRSRVTISRDTSKNQFSLKLSSVTAADTAVYSCARALYYPWYFDVWGTGTTVTVSS
VL: EIVLTQSPATLSLSPGERATLSCRASSSVGYIHWYQQKPGQAPRPLIYATSNRATGIPARFSGSGSGTDNTLTISSLEPEDSAVYYCQQWSSYPPITFGGGTKLEVKR
Consider B6, for which the Kd was 0.125 nM in test [3]; 2.88 nM in test [4]; less than 0.001 nM in test [5]; 3.81 nM in [6]; 4.26 nM in test [7]. Further, the koff was 5.6e-05 s⁻¹ in [3]; 0.00104 s⁻¹ in [4]; less than 1e-07 s⁻¹ in test [5]; 0.00118 s⁻¹ in test [6]; 0.00067 s⁻¹ in [7]. The kon in [3] came out at 450000 M⁻¹ s⁻¹; in test [4], 361000 M⁻¹ s⁻¹; in test [5], 333000 M⁻¹ s⁻¹; in test [6], 311000 M⁻¹ s⁻¹; in [7], 157000 M⁻¹ s⁻¹. The EC50 in test [8] turned out to be 0.031 nM; in [9], 0.11 nM; in test [10], 0.03 nM; in test [11], 0.044 nM; in test [12], 0.107 nM; in test [13] it was 0.18 nM. In addition, in [14], the binding result is reported as “no binding (tested: 500 nM)”.

B7: anti-VISTA clone 4M2-D5 IgG1 (antibody, V domains shown)
VH: QVQLQQSGAELARPGASVRMSCKASGYTFTSYTMNWVKQRPGQGLEWIGFINPDSDYTTYDQKFKDKATLTADSSSSTAYMQLSSLTYDDSAVYYCTRHSYGNYGDYWGQGTTLTVSS
VL: DIVLTQSPKFLLVSAGDRVTITCKASQSVTNDVAWYQQKPGQSPKLLIYYASSRYTGVPDRFTGSGFGTDFTFTINTVQAEDLAVYFCQQDYSSPYTFGGGTKLEIKR
B7: the binding result in [15] is on record as “binds”.

B8: anti-VISTA clone 4M2-A8 IgG1 (antibody, V domains shown)
VH: QVQLQQSGADLARPGASVKMSCKASGYTFIDYTVHWVKQRPGQGLEWIGFINPSNDYTSYNQKFKDKASLTADTSSTTAYMQLSSLTSDDSAVYYCARHSYGNYGDYWGQGTTLTVSS
VL: DIVMTQAPKFLLVSAGDRVTITCKASQSVTNGVAWYQQKPGQSPKLLIYYASNRYTGVPDRFTGSGFGTDFTFTISTVQAEDLAVYFCQQDYSSPYTFGGGTKLEIKR
For the molecule B8, in test [1], the binding result was “binds”.

B9: anti-VISTA clone 13D5-1 IgG1 (antibody, V domains shown)
VH: QVQLQQSGAELVRPGTSVKISCKASGYTFTNYWLGWVKQRPGHGLEWIGDIYPGGGYTNYNEKFKGKATLTADTSSSTAYMQLSSLTSEDSAVYFCVRSGYYYGSSWYFDVWGAGTTVTVSS
VL: DVLMTQTPLSLPVSLGDQASISCRSSQSIVHSSGNTYLEWYLQKPDQSPKLLIYKVSNRFSGVPDRFSGSGSGTDFTLKISRVEAEDLGVYYCFQGSHVPPTFGGGTKLEIKR
With B9, the binding result in test [16], in test [17] and in [18] was “binds” each time.

B10: anti-VISTA clone 2M1-B12 IgG1 (antibody)
heavy: not shown
light: DIQMMQSPASLSASVGETVAITCGASENIYGALNWYQRKQGKSPQLLIYGATNLADGMSSRFSGSGSGRQYSLKISSLHPDDVATYYCQNVLSTPYTFGGGTKLEIKRTVAAPSVFIFPPSDEQLKSGTASVVCLLNNFYPREAKVQWKVDNALQSGNSQESVTEQDSKDSTYSLSSTLTLSKADYEKHKVYACEVTHQGLSSPVTKSFNRGEC
Consider B10, for which the binding result in test [1] is recorded as “binds”.

B11: anti-VISTA clone 2M1-D2 IgG1 (antibody)
heavy: not shown
light: DIVMTQSPASLSASVGETVAITCGASENIYGALNWYQRKQGKSPQLLIYGATNLADGMSSRFSGSGSGRQYSLKISSLHPDDVATYYCQNVLSTPYTFGGGTKLEIKRTVAAPSVFIFPPSDEQLKSGTASVVCLLNNFYPREAKVQWKVDNALQSGNSQESVTEQDSKDSTYSLSSTLTLSKADYEKHKVYACEVTHQGLSSPVTKSFNRGEC
In the case of B11, the binding result in test [1] is listed as “binds”.
